The numbers were not newly measured in paper PMC3138048, which cites them from elsewhere.

The series has as its target Lys199 (UniProt position 223, AKQRLKCASLQ). The series can be described thus: chemical modification.

In the case of “Human serum albumin (HSA) (Homo sapiens)”, the pKa is reported as 7.9.

In general, pKa refers to the pH at which an ionisable group is half protonated.
